According to FireProtDB (doi:10.1021/bi701495v):

Settings: Ajellomyces capsulatus (strain G186AR / H82 / ATCC MYA-2454 / RMSCC 2432); pH 6.5; 25 °C; Urea; CD; KH2PO4 0.01 M; KCl 0.1 M; reversible: Yes; whole UniProt chain shown

B1: Calcium-binding protein wild type, O42720 (protein)
chain: MLFSKVIAPAFILLGAASAAPGGLAPENASKRDQPSVGDAFDKYNEAVRVFTQLSSAANCDWAACLSSLSASSAACIAAVGELGLDVPLDLACAATATSSATEACKGCLW
With B1 the denaturant m value was 0.84 kcal/mol/M, the “denaturant midpoint (higher = more stable)” value was 3.4 M and the unfolding free energy was 2.9 kcal/mol.
